The values that follow come from patent publication US20110118447A1.

Positions count from the first letter of the chain named. In names and notes the source's numbering stands.

The chains are these.
B1: C5A (XPA23) VL S50G (antibody, V domains shown)
VH: EVQLLESGGGLVQPGGSLRLSCAASGFTFSKYFMFWVRQAPGKGLEWVSVISPSGGMTRYADSVKGRFTISRDNSKNTLYLQMNSLRAEDTAVYYCARVGYGGNSDYWGQGTLVTVSS
VL: DIQMTQSPSSVSASVGDRLTIICRASQDINRWLAWYQQTPGNAPKLLIHGATSLQSGVPSRFSGSGSGTDFTLTINSLQPEDFATYYCQQADSFPLTFGGGTKVEIK
B2: C5A (XPA23) VL D92I (antibody, V domains shown)
VH: B1 VH
VL: B1 VL with G50S, D92I
B3: C5A (XPA23) VL T52V (antibody, V domains shown)
VH: B1 VH
VL: B1 VL with G50S, T52V
B4: C5A (XPA23) VL S53I (antibody, V domains shown)
VH: B1 VH
VL: B1 VL with G50S, S53I
B5: C5A (XPA23) VL S93W (antibody, V domains shown)
VH: B1 VH
VL: B1 VL with G50S, S93W
B6: C5A (XPA23) VL A51L (antibody, V domains shown)
VH: B1 VH
VL: B1 VL with G50S, A51L
B7: C5A (XPA23) VL S50A (antibody, V domains shown)
VH: B1 VH
VL: B1 VL with G50A
B8: C5A (XPA23) VL A51G (antibody, V domains shown)
VH: B1 VH
VL: B1 VL with G50S, A51G
B9: C5A (XPA23) VL A51V (antibody, V domains shown)
VH: B1 VH
VL: B1 VL with G50S, A51V
B10: C5A (XPA23) VL S93V (antibody, V domains shown)
VH: B1 VH
VL: B1 VL with G50S, S93V
B11: C5A (XPA23) VL D92G (antibody, V domains shown)
VH: B1 VH
VL: B1 VL with G50S, D92G
B12: C5A (XPA23) VL S53F (antibody, V domains shown)
VH: B1 VH
VL: B1 VL with G50S, S53F
B13: C5A (XPA23) VL S93G (antibody, V domains shown)
VH: B1 VH
VL: B1 VL with G50S, S93G
B14: C5A (XPA23) VL T52W (antibody, V domains shown)
VH: B1 VH
VL: B1 VL with G50S, T52W
B15: C5A (XPA23) VL D92F (antibody, V domains shown)
VH: B1 VH
VL: B1 VL with G50S, D92F
B16: C5A (XPA23) VL A91L (antibody, V domains shown)
VH: B1 VH
VL: B1 VL with G50S, A91L
B17: C5A (XPA23) VL D92A (antibody, V domains shown)
VH: B1 VH
VL: B1 VL with G50S, D92A
B18: C5A (XPA23) VL S50V (antibody, V domains shown)
VH: B1 VH
VL: B1 VL with G50V
B19: C5A (XPA23) VL T52L (antibody, V domains shown)
VH: B1 VH
VL: B1 VL with G50S, T52L
B20: C5A (XPA23) VL T52P (antibody, V domains shown)
VH: B1 VH
VL: B1 VL with G50S, T52P
B21: C5A (XPA23) VL S53V (antibody, V domains shown)
VH: B1 VH
VL: B1 VL with G50S, S53V
B22: C5A (XPA23) VL S53G (antibody, V domains shown)
VH: B1 VH
VL: B1 VL with G50S, S53G
B23: C5A (XPA23) VL S53P (antibody, V domains shown)
VH: B1 VH
VL: B1 VL with G50S, S53P
B24: C5A (XPA23) VL T52A (antibody, V domains shown)
VH: B1 VH
VL: B1 VL with G50S, T52A
B25: C5A (XPA23) VL D92L (antibody, V domains shown)
VH: B1 VH
VL: B1 VL with G50S, D92L
B26: C5A (XPA23) VL S93F (antibody, V domains shown)
VH: B1 VH
VL: B1 VL with G50S, S93F
B27: C5A (XPA23) VL F94I (antibody, V domains shown)
VH: B1 VH
VL: B1 VL with G50S, F94I
B28: C5A (XPA23) VL S50W (antibody, V domains shown)
VH: B1 VH
VL: B1 VL with G50W
B29: C5A (XPA23) VL F94V (antibody, V domains shown)
VH: B1 VH
VL: B1 VL with G50S, F94V
B30: C5A (XPA23) VL A51P (antibody, V domains shown)
VH: B1 VH
VL: B1 VL with G50S, A51P
B31: C5A (XPA23) VL S93A (antibody, V domains shown)
VH: B1 VH
VL: B1 VL with G50S, S93A
B32: C5A (XPA23) VL S93I (antibody, V domains shown)
VH: B1 VH
VL: B1 VL with G50S, S93I
B33: C5A (XPA23) VL S53A (antibody, V domains shown)
VH: B1 VH
VL: B1 VL with G50S, S53A
B34: C5A (XPA23) VL A51W (antibody, V domains shown)
VH: B1 VH
VL: B1 VL with G50S, A51W
B35: C5A (XPA23) VL S93L (antibody, V domains shown)
VH: B1 VH
VL: B1 VL with G50S, S93L
B36: C5A (XPA23) VL T52I (antibody, V domains shown)
VH: B1 VH
VL: B1 VL with G50S, T52I
B37: C5A (XPA23) VL D92W (antibody, V domains shown)
VH: B1 VH
VL: B1 VL with G50S, D92W
B38: C5A (XPA23) VL A91V (antibody, V domains shown)
VH: B1 VH
VL: B1 VL with G50S, A91V
B39: C5A (XPA23) VL T52F (antibody, V domains shown)
VH: B1 VH
VL: B1 VL with G50S, T52F
B40: C5A (XPA23) VL S50I (antibody, V domains shown)
VH: B1 VH
VL: B1 VL with G50I
B41: C5A (XPA23) VL S50L (antibody, V domains shown)
VH: B1 VH
VL: B1 VL with G50L
B42: C5A (XPA23) VL S53L (antibody, V domains shown)
VH: B1 VH
VL: B1 VL with G50S, S53L
B43: C5A (XPA23) VL S53W (antibody, V domains shown)
VH: B1 VH
VL: B1 VL with G50S, S53W

The assay deals with binding partner of C5A (XPA23). The assay is described as follows: Biacore K-off.
For the molecule B1, the fold difference in affinity vs original worked out at 0.14 fold.

With B2, the fold difference in affinity vs original came out at 0.33 fold.

On to B3, for which the fold difference in affinity vs original came to 0.82 fold.

In the case of B4, the fold difference in affinity vs original is 1.42 fold.

Take B5: the fold difference in affinity vs original stood at 5.49 fold.

As to B6, the fold difference in affinity vs original is 0.16 fold.

Take B7: the fold difference in affinity vs original amounted to 0.13 fold.

B8: the fold difference in affinity vs original was 3.84 fold.

For the molecule B9, the fold difference in affinity vs original turned out to be 0.31 fold.

As for B10, the fold difference in affinity vs original came to 3.81 fold.

For B11, the fold difference in affinity vs original turned out to be 0.26 fold.

Take B12: the fold difference in affinity vs original is 1.24 fold.

For the molecule B13, the fold difference in affinity vs original came out at 0.75 fold.

For B14, the fold difference in affinity vs original was found to be 0.87 fold.

In the case of B15, the fold difference in affinity vs original was found to be 0.26 fold.

Take B16: the fold difference in affinity vs original was found to be 0.39 fold.

Take B17: the fold difference in affinity vs original was determined as 0.4 fold.

B18: the fold difference in affinity vs original stood at 0.21 fold.

As to B19, the fold difference in affinity vs original was determined as 0.78 fold.

Regarding B20, the fold difference in affinity vs original was 1.08 fold.

Consider B21, for which the fold difference in affinity vs original was found to be 1.42 fold.

In the case of B22, the fold difference in affinity vs original was 1.03 fold.

Regarding B23, the fold difference in affinity vs original came out at 4.92 fold.

With B24, the fold difference in affinity vs original amounted to 0.66 fold.

Consider B25, for which the fold difference in affinity vs original was 0.14 fold.

For B26, the fold difference in affinity vs original worked out at 1.32 fold.

For the molecule B27, the fold difference in affinity vs original came out at 0.88 fold.

On to B28, for which the fold difference in affinity vs original was determined as 0.02 fold.

For B29, the fold difference in affinity vs original amounted to 0.2 fold.

For the molecule B30, the fold difference in affinity vs original is 0.13 fold.

On to B31, for which the fold difference in affinity vs original was found to be 1.16 fold.

Regarding B32, the fold difference in affinity vs original was 1.35 fold.

Regarding B33, the fold difference in affinity vs original came to 1.07 fold.

As to B34, the fold difference in affinity vs original is 0.24 fold.

As to B35, the fold difference in affinity vs original amounted to 1.08 fold.

As to B36, the fold difference in affinity vs original was determined as 0.8 fold.

For B37, the fold difference in affinity vs original stood at 0.12 fold.

For B38, the fold difference in affinity vs original is 0.51 fold.

On to B39, for which the fold difference in affinity vs original is 1.05 fold.

As for B40, the fold difference in affinity vs original turned out to be 0.25 fold.

B41: the fold difference in affinity vs original was found to be 0.49 fold.

Regarding B42, the fold difference in affinity vs original is 0.99 fold.

For the molecule B43, the fold difference in affinity vs original amounted to 1.11 fold.
